Laboratory results reported in US9383360B2, “Compositions and methods relating to lyme disease” (The United States of America, as represented by the …, priority 2012, dated 2016).

Legend:
[1] = test system: chondrocyte aggregate cultures; experiment: Chondrocyte cytokine induction assay (Proteome Profiler Cytokine Arrays); assay type: cell-based, human; conditions: for Cytokines released by chondrocytes in response: LPS, medium alone
Source text: Chondrocyte aggregate cultures are used which form an extensive extracellular matrix with components characteristic of articular cartilage including aggrecan and type II collagen as described in Welter, J. et al, BioTechniques, 2007, 42(6):732-737; and Solchaga, L. A. et al., Chondrogenic Differentiation of Bone Marrow-Derived Mesenchymal Stem Cells: Tips and Tricks, 2011, 698:253-278.
To form the chondrocyte aggregate cultures, lx10^6 human mesenchymal stem cells (passage one, Lonza, catalog #PT-2501) were plated in a T150 flask (Corning) and cultured in growth media: mesenchymal stem cell basal media (MSCBM, Lonza, #PT-3238), mesenchymal growth supplements (SingleQuots, Lonza, #PT-4105), and 5 ng/ml recombinant human […] (Shenandoah Biotechnology). When confluent, cells were trypsin-released (0.5% trypsin EDTA, Gibco), expanded to two T150 flasks and fed with growth media every three days. When confluent, cells were harvested, resuspended in fresh growth media containing 5% DMSO and aliquots of 1×10^6 cells were cryopreserved in liquid nitrogen.
Human mesenchymal stem cells were used to promote chondrogenesis and chondrocyte aggregate formation for use in these studies. Two vials of passage three cryopreserved cells were thawed, plated in growth media in two T150 flasks and then expanded to six T150 flasks as above. Cells were harvested (0.5% trypsin EDTA, Gibco), pooled, enumerated and induced to chondrogenic differentiation as follows. Cells were resuspended in defined chondrocyte differentiation media: high glucose DMEM (Gibco), 50 μg/ml ascorbic acid-2-phosphate (Sigma), 39.3 ng/ml dexamethasone (Sigma), […] L-proline (Sigma), ITS+Premix (BD Biosciences), 10 ng/ml transforming growth factor β-3 (Shenandoah Biotechnology) and 30 μg/ml gentamicin sulfate+15 ng/ml amphotericin-B (GA-1000, Lonza, #PT-4504E). High density aggregates were obtained by plating, on average, 3×10^5 cells per well in a conical bottom 96 well plate (Thermo Scientific), pelleting by centrifugation (5 minutes at 600 g), and incubation at 37° C. and 5% CO2. Pellets formed coherent spherical aggregates by day two of culture. After seven days, wide bore tips were used to transfer aggregates to V-bottom 96 well plates (Corning). Aggregates were maintained in differentiation media at 37° C. and 5% CO2 for 3-5 weeks and fed every two days until experimentation.
For chondrocyte cytokine induction assays, 24 hours prior to experimentation, dexamethasone containing media was removed, aggregates were rinsed with DPBS (Gibco) and dexamethasone-free differentiation media was added. For experimentation, aggregates were transferred to 24 well plates (24 aggregates per condition), spent media was removed and fresh warmed dexamethasone-free media containing samples was added. Aggregates were then incubated at 37° C. and 5% CO2 for two days.
Recombinant BbHtrA or BbHtrA^S226A was added to culture medium and incubated with chondrocyte aggregate cultures. BbHtrA and BbHtrA^S226A were purified using an E. coli system and was expected to contain endotoxin which would have a stimulatory effect on the chondrocytes. To control for endotoxin contamination (lipopolysaccharide, LPS), an endotoxin removal kit (Noragen) was used to remove the bulk of LPS from recombinant BbHtrAs. The relative toxicity of the amount remaining in the BbHtrA and BbHtrA^S226A samples was determined by a chromogenic Limulus Amoebocyte Lysate (LAL) method (Lonza, Walkersville, Md.). Prior to addition to aggregates, LPS (44 ng, 200 EU), BbHtrA^WT (20 μg, 27.9 EU LPS) and BbHtrA^S226A ([…], 1.99 EU LPS) were incubated in 1 mg/ml polymyxin B sulfate (Sigma) on ice for 30 min with occasional mixing. Warmed dexamethasone-free medium was then added to each test condition to a final volume of 1 ml. Control aggregates were maintained in untreated medium also containing polymyxin B sulfate. The final concentration for all test conditions was 60 μg/ml polymyxin B sulfate. […]

Aggrecan [2] = target: T1, Aggrecan (Bos taurus, UniProt P13608); experiment: BbHtrA proteolysis assay, aggrecan substrate; assay type: biochemical, bovine, human; conditions: native bovine aggrecan, SDS-PAGE, FIG. 4B
T1 construct: recombinant human aggrecan (G1-IGD-G2 domains)
Method: (§1) For proteolysis assays described in Examples herein, purified protein substrates (200-600 nM) and proteases (100-150 nM) were diluted in assay buffer (50 mM HEPES, pH 7.4, 5 mM CaCl2) and incubated overnight at 37° C. Samples were boiled for 4 minutes to inactivate the proteases. Proteoglycans were deglycosylated by overnight incubation at 37° C. with 0.01 U chondroitinase ABC (Seikagaku). Reactions were stopped by the addition of SDS/PAGE sample buffer, boiled for 4 minutes, and electrophoresed on pre-cast Tris-glycine gels (BioRad). Reaction products were visualized by silver staining.
(§2) BbHtrA cleaved recombinant human aggrecan (G1-IGD-G2 domains) within the IGD (FIG. 4A). Cleavage of recombinant aggrecan generated three high molecular weight proteolytic fragments which migrated at ˜110 kd, ˜60 kd and ˜50 kd.
(§3) BbHtrA also degraded native, fully glycosylated aggrecan (FIG. 4B, lane 5). Again, this degradation required BbHtrA catalytic activity (FIG. 4B, lane 6). The BbHtrA-generated aggrecan fragments appear to be a doublet, unlike those generated by HtrA1.
(§4) Purified proteins were incubated with BbHtrA or BbHtrA^S226A as described herein. HtrA (also known as DegP) proteases belong to the family of serine proteases which contain a highly reactive serine residue in their active site. This serine (Ser210 in DegP) is part of the canonical His-Ser-Asp catalytic triad and mutation of the catalytic serine abolishes proteolytic activity (Skorko-Glonek et al., 1995). In BbHtrA, residues His119, Ser226 and Asp149 form the catalytic triad and mutation of serine 226 to alanine abolished proteolytic activity as expected (FIG. 5).
(§5) Reaction products were separated by SDS-PAGE and silver stained. Native collagen II and recombinant tenascin C were not degraded by BbHtrA indicating selectivity for proteoglycans, E-cadherin and fibronectin. FIG. 5 is an image of SDS-PAGE analysis showing that BbHtrA degrades aggrecan, neurocan, versican, brevican, biglycan, decorin, E-cadherin, and casein.

Aggrecan [3] = experiment: BbHtrA proteolysis assay, aggrecan substrate; assay type: biochemical, bovine, human; conditions: SDS-PAGE
Method: as §1, §2, §3, §4, §5

Casein = experiment: BbHtrA proteolysis assay, casein substrate; assay type: biochemical, bovine; conditions: SDS-PAGE, FIG. 5
Method: as §1, §4
Reaction products were separated by SDS-PAGE and silver stained. Native collagen II and recombinant tenascin C were not degraded by BbHtrA indicating selectivity for proteoglycans, E-cadherin and fibronectin. […]

[4] = spent medium of chondrocyte aggregates after 48 hours, cytokine array, background subtracted

T1 sequence (P13608 17-2364): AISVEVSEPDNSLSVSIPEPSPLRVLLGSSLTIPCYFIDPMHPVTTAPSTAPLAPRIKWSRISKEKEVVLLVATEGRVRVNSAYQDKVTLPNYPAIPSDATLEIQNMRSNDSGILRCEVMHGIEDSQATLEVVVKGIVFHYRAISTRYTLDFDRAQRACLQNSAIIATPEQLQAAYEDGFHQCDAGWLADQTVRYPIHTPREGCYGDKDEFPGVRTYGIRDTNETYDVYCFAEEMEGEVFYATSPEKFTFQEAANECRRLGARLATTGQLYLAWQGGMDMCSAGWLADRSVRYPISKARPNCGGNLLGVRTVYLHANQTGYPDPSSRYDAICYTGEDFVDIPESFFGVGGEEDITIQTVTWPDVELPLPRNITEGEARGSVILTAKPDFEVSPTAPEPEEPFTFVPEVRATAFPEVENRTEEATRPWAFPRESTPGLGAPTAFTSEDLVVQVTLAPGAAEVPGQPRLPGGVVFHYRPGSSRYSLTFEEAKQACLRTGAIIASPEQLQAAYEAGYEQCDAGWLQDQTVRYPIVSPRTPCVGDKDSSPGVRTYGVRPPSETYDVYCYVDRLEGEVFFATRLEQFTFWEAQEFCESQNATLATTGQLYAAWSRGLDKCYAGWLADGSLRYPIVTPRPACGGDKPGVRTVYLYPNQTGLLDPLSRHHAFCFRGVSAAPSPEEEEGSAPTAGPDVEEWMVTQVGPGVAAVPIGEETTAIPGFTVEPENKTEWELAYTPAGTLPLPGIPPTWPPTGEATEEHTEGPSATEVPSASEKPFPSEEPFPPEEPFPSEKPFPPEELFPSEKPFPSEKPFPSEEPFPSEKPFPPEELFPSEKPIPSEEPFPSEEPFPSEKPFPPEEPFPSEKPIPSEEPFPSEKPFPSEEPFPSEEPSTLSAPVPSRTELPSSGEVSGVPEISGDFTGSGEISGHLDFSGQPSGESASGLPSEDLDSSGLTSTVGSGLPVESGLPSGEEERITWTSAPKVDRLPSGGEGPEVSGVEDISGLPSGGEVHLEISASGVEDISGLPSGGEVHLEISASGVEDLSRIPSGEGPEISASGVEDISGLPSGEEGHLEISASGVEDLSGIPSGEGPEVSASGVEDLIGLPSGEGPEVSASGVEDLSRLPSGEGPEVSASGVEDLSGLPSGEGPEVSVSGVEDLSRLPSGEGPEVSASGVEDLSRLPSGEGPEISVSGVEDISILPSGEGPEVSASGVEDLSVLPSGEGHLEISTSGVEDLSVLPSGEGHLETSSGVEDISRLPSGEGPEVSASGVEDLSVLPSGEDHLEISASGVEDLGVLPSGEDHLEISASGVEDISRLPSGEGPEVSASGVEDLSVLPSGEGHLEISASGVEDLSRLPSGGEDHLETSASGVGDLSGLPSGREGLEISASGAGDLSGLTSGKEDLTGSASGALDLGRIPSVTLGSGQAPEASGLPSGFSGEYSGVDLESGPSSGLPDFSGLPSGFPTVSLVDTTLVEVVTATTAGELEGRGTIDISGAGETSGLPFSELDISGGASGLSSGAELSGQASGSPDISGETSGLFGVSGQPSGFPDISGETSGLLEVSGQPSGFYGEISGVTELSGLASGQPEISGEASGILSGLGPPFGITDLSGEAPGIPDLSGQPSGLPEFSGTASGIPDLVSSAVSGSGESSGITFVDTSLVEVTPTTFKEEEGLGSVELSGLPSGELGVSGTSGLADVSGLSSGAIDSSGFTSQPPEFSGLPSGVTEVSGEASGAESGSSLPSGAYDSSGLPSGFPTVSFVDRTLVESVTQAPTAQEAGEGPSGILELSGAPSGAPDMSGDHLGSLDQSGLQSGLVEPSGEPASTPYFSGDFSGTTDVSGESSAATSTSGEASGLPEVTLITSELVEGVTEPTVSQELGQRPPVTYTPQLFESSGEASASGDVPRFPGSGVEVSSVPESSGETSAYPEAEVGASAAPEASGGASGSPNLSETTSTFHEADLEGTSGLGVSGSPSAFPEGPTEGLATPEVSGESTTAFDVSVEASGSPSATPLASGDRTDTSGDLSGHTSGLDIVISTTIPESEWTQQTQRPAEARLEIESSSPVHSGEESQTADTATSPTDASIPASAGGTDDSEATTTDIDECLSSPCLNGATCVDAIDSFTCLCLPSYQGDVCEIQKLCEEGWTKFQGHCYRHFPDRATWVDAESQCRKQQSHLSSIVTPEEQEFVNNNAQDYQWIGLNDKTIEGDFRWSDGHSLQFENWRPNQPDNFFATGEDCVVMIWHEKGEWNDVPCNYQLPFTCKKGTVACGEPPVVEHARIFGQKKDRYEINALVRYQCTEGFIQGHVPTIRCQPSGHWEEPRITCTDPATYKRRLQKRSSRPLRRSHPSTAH

B1: BbHtrA: Recombinant wild type B. burgdorferi HtrA serine protease, mature protein amino acids 38-474, expressed in E. coli (SEQ ID NO:1, 9) (protein, listed as Borrelia burgdorferi)
chain: EEKDNTVRALQDSFREVSKKILPSSVEVHATGVIKQSFPIPFFFFDMPEFDSERKSNWAGSGVIIGRDSQKKSLFYVVTNSHVVDKATELEVVSYDKKKHKAKLIGKDEKKDIALISFESDDATIKVADLGDSDKLEIGDWVMAVGSPFQFSFTVTAGIVSGLQRSANPNLQSRNLFIQTDAAINRGNSGGPLVNIKGEVIGINAWIASNSGGNIGLGFAIPVNNIKSTVDFFLKGKKIESAWLGISFYPLKTRDSEVLKSLGVESNDVSAAIIASLYPGSPAVKSGLRAGDIIMKVNGVSMSVFQDVTSYISDFYAGEKVNVEILRGNVKKNIEIVLAVRPKDKELSSSKMLPGFVVYPLVEDIKAQLNLRNWIKGVVVDYIDKNLASNIKMKSGDVILSVNSKSVSNLREFYDALEVGKNTYKILRGNDSFKITF
- Cytokines released by chondrocytes in response ([1]; additional experiments, FIG. 10: BbHtrA^WT, BbHtrA^S226A): CCL5, CCL2, CXCL1, CCL1, sICAM-1, IL-6 and IL-8
- Cytokines released by chondrocytes in response ([1]; initial experiments, FIG. 9A: BbHtrA, heat denatured BbHtrA): CXCL1, CCL1, sICAM-1, IL-6, IL-8 and CCL2
- GROα/CXCL1 pixel density, Mean [1, 4]: 1.349
- I-309/CCL1 pixel density, Mean [1, 4]: 0.535
- IL-6 pixel density, Mean [1, 4]: 0.627
- IL-8 pixel density, Mean [1, 4]: 1.581
- MCP-1/CCL2 pixel density, Mean [1, 4]: 0.452
- RANTES/CCL5 pixel density, Mean [1, 4]: 0.736
- sICAM-1/CD54 pixel density, Mean [1, 4]: 0.890
- Degradation of native, fully glycosylated aggrecan (Aggrecan [2]): degraded
- Degradation of aggrecan (Aggrecan [3]; FIG. 5): degrades
- Cleavage of recombinant human aggrecan (G1-IGD-G2 domains) within the IGD (Aggrecan [3]; silver stain, FIG. 4A): cleaved
- Degradation of casein (Casein): degrades
